Data reported in patent US20150203577A1 (Chugai, published 2015).

T1: mouse FcγRII extracellular domain, C-terminally His-tagged (mouse, UniProt P08101 30-210)
T1 construct: the whole entry is named; also called mFcγRII; mFcgRII
T1 sequence: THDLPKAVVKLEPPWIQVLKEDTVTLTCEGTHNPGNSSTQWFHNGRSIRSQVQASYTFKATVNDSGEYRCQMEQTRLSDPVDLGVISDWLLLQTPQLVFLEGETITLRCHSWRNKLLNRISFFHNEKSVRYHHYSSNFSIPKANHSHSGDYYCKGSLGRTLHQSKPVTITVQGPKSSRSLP

T2: mouse FcγRIII extracellular domain, C-terminally His-tagged (mouse, UniProt P08508 31-215)
T2 construct: the whole entry is named; also called mFcγRIII; mFcgRIII
T2 chain: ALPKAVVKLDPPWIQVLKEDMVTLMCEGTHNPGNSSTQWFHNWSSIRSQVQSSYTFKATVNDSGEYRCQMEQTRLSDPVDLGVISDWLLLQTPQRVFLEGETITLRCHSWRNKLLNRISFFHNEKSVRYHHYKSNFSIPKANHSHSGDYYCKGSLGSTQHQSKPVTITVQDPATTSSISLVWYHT


Assays:
[1] = target: T1, mouse FcγRII extracellular domain, …; assay: SPR Biacore T200, KD ratio
Experimental: (§1) Each altered antibody was analyzed for its interaction with each Fcγ receptor prepared above using Biacore T100 (GE Healthcare Japan Corp.), Biacore T200 (GE Healthcare Japan Corp.), Biacore A100, or Biacore 4000. The running buffer used was HBS-EP+ (GE Healthcare Japan Corp.). The assay temperature was set to 25° C. The sensor chips used were chips prepared by immobilizing Protein L (ACTIGEN or BioVision) onto Series S Sensor Chip CM5 (GE Healthcare Japan Corp.) or Series S Sensor Chip CM4 (GE Healthcare Japan Corp.) by the amine coupling method.
(§2) In order to calculate the KD value of each altered antibody for FcγR, kinetic analysis was conducted according to the following method: first, the antibody of interest was captured onto any of these chips and allowed to interact with mFcγR diluted with a running buffer. For the obtained sensorgram, the assay results were globally fit into the 1:1 Langmuir binding model using Biacore Evaluation Software to calculate an association rate constant ka (L/mol/s) and a dissociation rate constant kd (1/s). From these values, the dissociation constant KD (mol/L) was calculated.

[2] = target: T2, mouse FcγRIII extracellular domain, …; assay: SPR Biacore T200, KD ratio
Experimental: as §1, §2

relative mFcγRII-binding activity (mIgG1 = 1) [1] | relative mFcγRIII-binding activity (mIgG1 = 1) [2] | Binder
2.77 fold | 0.17 fold | H237-MB633/MRAL-k0 (antibody, mouse IgG1, kappa, copies: 2 + 2) heavy: QVQLQESGPGLVKPSETLSLTCAVSGHSISHDHAWSWVRQPPGEGLEWIGFISYSGITNYNPSLQGRVTISRDNSKNTLYLQMNSLRAEDTAVYYCARSLARTTAMDYWGEGTLVTVSSAKTTPPSVYPLAPGSAAQTNSMVTLGCLVKGYFPEPVTVTWNSGSLSSGVHTFPAVLQSDLYTLSSSVTVPSSTWPSETVTCNVAHPASSTKVDKKIVPRDCGCKPCICEDYEVENVFIFPPKPKDVLTITLTPKVTCVVVDISKDDPEVQFSWFVDDVEVHTAQTQPREEQFNSTFRSVSELPIMHQDWLNGKEFKCRVNSAAFPAPIEKTISKTKGRPKAPQVYTIPPPKEQMAKDKVSLTCMITDFFPEDITVEWQWNGQPAENYKNTQPIMDTDGSYFVYSKLNVQKSNWEAGNTFTCSVLHEGLHNHHTEKSLSHSPGK light: not shown
0.75 fold | 0.08 fold | H237-MB638/MRAL-k0 (antibody, mouse IgG1, kappa, copies: 2 + 2) heavy: QVQLQESGPGLVKPSETLSLTCAVSGHSISHDHAWSWVRQPPGEGLEWIGFISYSGITNYNPSLQGRVTISRDNSKNTLYLQMNSLRAEDTAVYYCARSLARTTAMDYWGEGTLVTVSSAKTTPPSVYPLAPGSAAQTNSMVTLGCLVKGYFPEPVTVTWNSGSLSSGVHTFPAVLQSDLYTLSSSVTVPSSTWPSETVTCNVAHPASSTKVDKKIVPRDCGCKPCICIPAEVENVFIFPPKPKDVLTITLTPKVTCVVVDISKDDPEVQFSWFVDDVEVHTAQTQPREEQFNSTFRSVSELPIMHQDWLNGKEFKCRVNSAAFPAPIEKTISKTKGRPKAPQVYTIPPPKEQMAKDKVSLTCMITDFFPEDITVEWQWNGQPAENYKNTQPIMDTDGSYFVYSKLNVQKSNWEAGNTFTCSVLHEGLHNHHTEKSLSHSPGK light: not shown
1.87 fold | 0.08 fold | H237-MB642/MRAL-k0 (antibody, mouse IgG1, kappa, copies: 2 + 2) heavy: QVQLQESGPGLVKPSETLSLTCAVSGHSISHDHAWSWVRQPPGEGLEWIGFISYSGITNYNPSLQGRVTISRDNSKNTLYLQMNSLRAEDTAVYYCARSLARTTAMDYWGEGTLVTVSSAKTTPPSVYPLAPGSAAQTNSMVTLGCLVKGYFPEPVTVTWNSGSLSSGVHTFPAVLQSDLYTLSSSVTVPSSTWPSETVTCNVAHPASSTKVDKKIVPRDCGCKPCICEDYEVEYVFIFPPKPKDVLTITLTPKVTCVVVDISKDDPEVQFSWFVDDVEVHTAQTQPREEQFNSTFRSVSELPIMHQDWLNGKEFKCRVNSAAFPAPIEKTISKTKGRPKAPQVYTIPPPKEQMAKDKVSLTCMITDFFPEDITVEWQWNGQPAENYKNTQPIMDTDGSYFVYSKLNVQKSNWEAGNTFTCSVLHEGLHNHHTEKSLSHSPGK light: not shown
2.6 fold | 0.15 fold | H237-MB637/MRAL-k0 (antibody, mouse IgG1, kappa, copies: 2 + 2) heavy: QVQLQESGPGLVKPSETLSLTCAVSGHSISHDHAWSWVRQPPGEGLEWIGFISYSGITNYNPSLQGRVTISRDNSKNTLYLQMNSLRAEDTAVYYCARSLARTTAMDYWGEGTLVTVSSAKTTPPSVYPLAPGSAAQTNSMVTLGCLVKGYFPEPVTVTWNSGSLSSGVHTFPAVLQSDLYTLSSSVTVPSSTWPSETVTCNVAHPASSTKVDKKIVPRDCGCKPCICEPAEVENVFIFPPKPKDVLTITLTPKVTCVVVDISKDDPEVQFSWFVDDVEVHTAQTQPREEQFNSTFRSVSELPIMHQDWLNGKEFKCRVNSAAFPAPIEKTISKTKGRPKAPQVYTIPPPKEQMAKDKVSLTCMITDFFPEDITVEWQWNGQPAENYKNTQPIMDTDGSYFVYSKLNVQKSNWEAGNTFTCSVLHEGLHNHHTEKSLSHSPGK light: not shown
5.06 fold | 0.29 fold | H237-MB635/MRAL-k0 (antibody, mouse IgG1, kappa, copies: 2 + 2) heavy: QVQLQESGPGLVKPSETLSLTCAVSGHSISHDHAWSWVRQPPGEGLEWIGFISYSGITNYNPSLQGRVTISRDNSKNTLYLQMNSLRAEDTAVYYCARSLARTTAMDYWGEGTLVTVSSAKTTPPSVYPLAPGSAAQTNSMVTLGCLVKGYFPEPVTVTWNSGSLSSGVHTFPAVLQSDLYTLSSSVTVPSSTWPSETVTCNVAHPASSTKVDKKIVPRDCGCKPCICETYEVENVFIFPPKPKDVLTITLTPKVTCVVVDISKDDPEVQFSWFVDDVEVHTAQTQPREEQFNSTFRSVSELPIMHQDWLNGKEFKCRVNSAAFPAPIEKTISKTKGRPKAPQVYTIPPPKEQMAKDKVSLTCMITDFFPEDITVEWQWNGQPAENYKNTQPIMDTDGSYFVYSKLNVQKSNWEAGNTFTCSVLHEGLHNHHTEKSLSHSPGK light: not shown
2.52 fold | 0.21 fold | H237-MB634/MRAL-k0 (antibody, mouse IgG1, kappa, copies: 2 + 2) heavy: QVQLQESGPGLVKPSETLSLTCAVSGHSISHDHAWSWVRQPPGEGLEWIGFISYSGITNYNPSLQGRVTISRDNSKNTLYLQMNSLRAEDTAVYYCARSLARTTAMDYWGEGTLVTVSSAKTTPPSVYPLAPGSAAQTNSMVTLGCLVKGYFPEPVTVTWNSGSLSSGVHTFPAVLQSDLYTLSSSVTVPSSTWPSETVTCNVAHPASSTKVDKKIVPRDCGCKPCICENYEVENVFIFPPKPKDVLTITLTPKVTCVVVDISKDDPEVQFSWFVDDVEVHTAQTQPREEQFNSTFRSVSELPIMHQDWLNGKEFKCRVNSAAFPAPIEKTISKTKGRPKAPQVYTIPPPKEQMAKDKVSLTCMITDFFPEDITVEWQWNGQPAENYKNTQPIMDTDGSYFVYSKLNVQKSNWEAGNTFTCSVLHEGLHNHHTEKSLSHSPGK light: not shown
4.41 fold | 0.14 fold | H237-MB636/MRAL-k0 (antibody, mouse IgG1, kappa, copies: 2 + 2) heavy: QVQLQESGPGLVKPSETLSLTCAVSGHSISHDHAWSWVRQPPGEGLEWIGFISYSGITNYNPSLQGRVTISRDNSKNTLYLQMNSLRAEDTAVYYCARSLARTTAMDYWGEGTLVTVSSAKTTPPSVYPLAPGSAAQTNSMVTLGCLVKGYFPEPVTVTWNSGSLSSGVHTFPAVLQSDLYTLSSSVTVPSSTWPSETVTCNVAHPASSTKVDKKIVPRDCGCKPCICEVYEVENVFIFPPKPKDVLTITLTPKVTCVVVDISKDDPEVQFSWFVDDVEVHTAQTQPREEQFNSTFRSVSELPIMHQDWLNGKEFKCRVNSAAFPAPIEKTISKTKGRPKAPQVYTIPPPKEQMAKDKVSLTCMITDFFPEDITVEWQWNGQPAENYKNTQPIMDTDGSYFVYSKLNVQKSNWEAGNTFTCSVLHEGLHNHHTEKSLSHSPGK light: not shown
4.91 fold | 0.38 fold | H237-MB639/MRAL-k0 (antibody, mouse IgG1, kappa, copies: 2 + 2) heavy: QVQLQESGPGLVKPSETLSLTCAVSGHSISHDHAWSWVRQPPGEGLEWIGFISYSGITNYNPSLQGRVTISRDNSKNTLYLQMNSLRAEDTAVYYCARSLARTTAMDYWGEGTLVTVSSAKTTPPSVYPLAPGSAAQTNSMVTLGCLVKGYFPEPVTVTWNSGSLSSGVHTFPAVLQSDLYTLSSSVTVPSSTWPSETVTCNVAHPASSTKVDKKIVPRDCGCKPCICEPNEVENVFIFPPKPKDVLTITLTPKVTCVVVDISKDDPEVQFSWFVDDVEVHTAQTQPREEQFNSTFRSVSELPIMHQDWLNGKEFKCRVNSAAFPAPIEKTISKTKGRPKAPQVYTIPPPKEQMAKDKVSLTCMITDFFPEDITVEWQWNGQPAENYKNTQPIMDTDGSYFVYSKLNVQKSNWEAGNTFTCSVLHEGLHNHHTEKSLSHSPGK light: not shown
1.06 fold | 0.18 fold | H237-MB640/MRAL-k0 (antibody, mouse IgG1, kappa, copies: 2 + 2) heavy: QVQLQESGPGLVKPSETLSLTCAVSGHSISHDHAWSWVRQPPGEGLEWIGFISYSGITNYNPSLQGRVTISRDNSKNTLYLQMNSLRAEDTAVYYCARSLARTTAMDYWGEGTLVTVSSAKTTPPSVYPLAPGSAAQTNSMVTLGCLVKGYFPEPVTVTWNSGSLSSGVHTFPAVLQSDLYTLSSSVTVPSSTWPSETVTCNVAHPASSTKVDKKIVPRDCGCKPCICQPNEVENVFIFPPKPKDVLTITLTPKVTCVVVDISKDDPEVQFSWFVDDVEVHTAQTQPREEQFNSTFRSVSELPIMHQDWLNGKEFKCRVNSAAFPAPIEKTISKTKGRPKAPQVYTIPPPKEQMAKDKVSLTCMITDFFPEDITVEWQWNGQPAENYKNTQPIMDTDGSYFVYSKLNVQKSNWEAGNTFTCSVLHEGLHNHHTEKSLSHSPGK light: not shown
1.47 fold | 0.13 fold | H237-MB641/MRAL-k0 (antibody, mouse IgG1, kappa, copies: 2 + 2) heavy: QVQLQESGPGLVKPSETLSLTCAVSGHSISHDHAWSWVRQPPGEGLEWIGFISYSGITNYNPSLQGRVTISRDNSKNTLYLQMNSLRAEDTAVYYCARSLARTTAMDYWGEGTLVTVSSAKTTPPSVYPLAPGSAAQTNSMVTLGCLVKGYFPEPVTVTWNSGSLSSGVHTFPAVLQSDLYTLSSSVTVPSSTWPSETVTCNVAHPASSTKVDKKIVPRDCGCKPCICEAYEVEYVFIFPPKPKDVLTITLTPKVTCVVVDISKDDPEVQFSWFVDDVEVHTAQTQPREEQFNSTFRSVSELPIMHQDWLNGKEFKCRVNSAAFPAPIEKTISKTKGRPKAPQVYTIPPPKEQMAKDKVSLTCMITDFFPEDITVEWQWNGQPAENYKNTQPIMDTDGSYFVYSKLNVQKSNWEAGNTFTCSVLHEGLHNHHTEKSLSHSPGK light: not shown
